What was measured:
[1] = biological target: N2 A/HongKong/2671/2019 (Influenza A virus (H3N2))
[2] = biological target: N2 A/Switzerland/8060/2017 (Influenza A virus (H3N2))

1G01 Fab
Kd [1]: < 0.02 nM
Kd [2]: < 0.02 nM

Reference: patent publication US20260184814A1, “BROADLY NE[…] INFLUENZA NEURAMINIDASE” (priority 2022, published 2026)
